Common to all, as to format: cell-based
Test [1] concerns the target T1, ALPL (Homo sapiens, UniProt P05186).
T1 construct: expressed in transfected cells; host or cells: HEK 293T
T1 sequence (P05186 whole entry, looked up): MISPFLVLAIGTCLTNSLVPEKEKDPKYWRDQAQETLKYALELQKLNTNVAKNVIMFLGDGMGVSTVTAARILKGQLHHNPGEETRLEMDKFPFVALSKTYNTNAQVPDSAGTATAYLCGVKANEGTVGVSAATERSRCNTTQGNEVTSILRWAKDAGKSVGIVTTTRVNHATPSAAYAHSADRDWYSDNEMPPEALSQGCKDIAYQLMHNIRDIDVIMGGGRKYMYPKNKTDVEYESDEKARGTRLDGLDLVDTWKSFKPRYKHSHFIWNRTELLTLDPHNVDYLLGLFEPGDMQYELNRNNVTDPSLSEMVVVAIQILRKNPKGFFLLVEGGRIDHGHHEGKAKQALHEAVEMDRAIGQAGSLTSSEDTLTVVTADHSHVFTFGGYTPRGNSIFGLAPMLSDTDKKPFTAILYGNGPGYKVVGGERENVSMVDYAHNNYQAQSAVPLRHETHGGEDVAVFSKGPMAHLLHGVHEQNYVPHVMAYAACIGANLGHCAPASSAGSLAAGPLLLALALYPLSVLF
Conditions: for Luciferase Activity (fold change relative to pCMV6 transfected cells): Table 28, ALPL transfected cells; for fold increase in transduction by luciferase assay in cells expressing ALPL: relative to pCMV6 transfected cells, 24 hours post-transduction. As for the experimental part:
(§1) Briefly, a transduction assay was performed in that HEK 293T cells were transfected via calcium phosphate transfection with a plasmid expressing ALPL, an AAVR positive control, or a pCMV6 negative control (250 ng or 500 ng of plasmid). AAVR is a universal AAV entry factor involved in AAV transduction. […] At 24-hours post-transduction, GFP expression and luciferase activity were measured to quantify and observe AAV cellular transduction. […] The TTM-002, TTM-006, TTM-018, and TTM-019 capsid variants all comprised the SPH motif immediately subsequent to position 455, numbered relative to SEQ ID NO: 138 and a positive residue in one of the next three residues subsequent to the SPH motif.
(§2) To determine if the TTM-001 and TTM-002 capsid variants could bind to both the human ALPL protein (NM_000478.6, which is incorporated by reference herein) and the mouse ALPL ortholog (NM_001287172.1, which is incorporated by reference herein), HEK 293T cells were transfected via calcium phosphate transfection with a plasmid expressing human ALPL, the murine ortholog of ALPL, or a pCMV6 negative control. At 24 hours post-transfection, the HEK 293T cells expressing the ALPL receptor were transduced with an AAV particle comprising the TTM-001 capsid variant, the TTM-002 capsid variant, or an AAV9 control capsid protein, expressing a Luc2-GFP payload. At 24-hours post-transduction, luciferase activity (RLU) was measured to quantify AAV cellular transduction.

For test [2], the target named is T2, AAVR (Homo sapiens, UniProt Q8IZA0).
T2 construct: expressed in transfected cells; host or cells: HEK 293T
T2 sequence (Q8IZA0 whole entry, looked up): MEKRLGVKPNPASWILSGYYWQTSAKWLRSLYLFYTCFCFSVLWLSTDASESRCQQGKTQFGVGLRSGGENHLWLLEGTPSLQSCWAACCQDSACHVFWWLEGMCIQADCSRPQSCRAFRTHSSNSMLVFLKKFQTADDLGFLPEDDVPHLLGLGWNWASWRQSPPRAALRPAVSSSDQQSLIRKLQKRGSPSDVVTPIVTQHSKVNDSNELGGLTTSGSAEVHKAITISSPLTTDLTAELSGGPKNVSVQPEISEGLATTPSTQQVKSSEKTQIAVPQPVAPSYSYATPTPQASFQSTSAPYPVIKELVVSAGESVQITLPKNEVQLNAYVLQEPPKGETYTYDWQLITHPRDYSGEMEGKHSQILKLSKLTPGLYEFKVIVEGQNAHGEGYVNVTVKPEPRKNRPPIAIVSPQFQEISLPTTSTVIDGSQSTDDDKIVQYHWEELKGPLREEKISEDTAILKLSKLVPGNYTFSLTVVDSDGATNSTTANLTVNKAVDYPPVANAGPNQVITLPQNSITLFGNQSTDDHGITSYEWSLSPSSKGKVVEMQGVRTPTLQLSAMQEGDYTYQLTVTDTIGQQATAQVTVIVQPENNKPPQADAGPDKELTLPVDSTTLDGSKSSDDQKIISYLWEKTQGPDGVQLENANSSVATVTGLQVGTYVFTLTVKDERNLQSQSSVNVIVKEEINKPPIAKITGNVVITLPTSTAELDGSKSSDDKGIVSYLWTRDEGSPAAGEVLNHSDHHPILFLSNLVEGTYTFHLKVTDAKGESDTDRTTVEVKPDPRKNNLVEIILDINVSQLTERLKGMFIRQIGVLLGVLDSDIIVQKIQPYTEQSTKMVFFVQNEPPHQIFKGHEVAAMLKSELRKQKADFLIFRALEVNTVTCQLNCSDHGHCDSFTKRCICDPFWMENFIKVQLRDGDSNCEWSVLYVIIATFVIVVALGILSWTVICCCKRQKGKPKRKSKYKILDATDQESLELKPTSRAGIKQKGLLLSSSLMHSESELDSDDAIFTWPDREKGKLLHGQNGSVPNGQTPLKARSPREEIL
Conditions: Table 28; AAVR transfected cells. The protocol:
as §1

For test [3], the system named is HEK 293T cells transfected with pCMV6 negative control. The conditions noted are these: Table 28; pCMV6 transfected cells (negative control, reference). As for the experimental part:
as §1
Three isoforms of ALPL exist, isoform 1 (Alkaline phosphatase, placental-like 2 (ALPPL2), NM_031313, which is incorporated by reference herein), isoform 2 (alkaline phosphatase, placental (ALPP), NM_001632, which is incorporated by reference herein), and isoform 3 (alkaline phosphatase, intestinal (ALPLI), NM_001631, which is incorporated by reference herein), that can also be expressed on cell surfaces via a GPI-anchor. […] The transduction assay described above was repeated with the three isoforms. HEK 293T cells were transfected via calcium phosphate transfection with a plasmid expressing ALPL, isoform 1 of ALPL, isoform 2 of ALPL, isoform 3 of ALPL, an AAVR positive control, or a pCMV6 negative control. At 24 hours post-transfection, the HEK 293T cells expressing the ALPL receptor were transduced with an AAV particle comprising the TTM-001 capsid variant or the TTM-002 capsid variant, expressing a Luc2-GFP payload. At 24-hours post-transduction, luciferase activity (RLU) was measured to quantify AAV cellular transduction.
To determine if deletion of the endoplasmic reticulum (ER) localization signal of ALPL affected transduction of the TTM-001 and TTM-002 capsid variants, HEK 293T cells were transfected via calcium phosphate transfection with a plasmid expressing ALPL, ALP with a deletion of the ER localization signal (ALPL transcript variant 2 that lacks the ER signal (NM_001127501, which is incorporated by reference herein)), or a pCMV6 negative control. At 24 hours post-transfection, the HEK 293T cells expressing the ALPL receptor were transduced with an AAV particle comprising the TTM-001 capsid variant, the TTM-002 capsid variant, or an AAV9 capsid control, expressing a GFP payload. At 24-hours post-transduction, luciferase activity (RLU) was measured to quantify AAV cellular transduction. Data was normalized to fold change in luciferase activity (RLU) compared to the pCMV6 control.
as §2
AAV entry factor involved in AAV transduction), or a pCMV6 negative control.

B1: TTM-006: AAV9 capsid variant, full length capsid sequence of Table 4 (protein)
chain: MAADGYLPDWLEDNLSEGIREWWALKPGAPQPKANQQHQDNARGLVLPGYKYLGPGNGLDKGEPVNAADAAALEHDKAYDQQLKAGDNPYLKYNHADAEFQERLKEDTSFGGNLGRAVFQAKKRLLEPLGLVEEAAKTAPGKKRPVEQSPQEPDSSAGIGKSGAQPAKKRLNFGQTGDTESVPDPQPIGEPPAAPSGVGSLTMASGGGAPVADNNEGADGVGSSSGNWHCDSQWLGDRVITTSTRTWALPTYNNHLYKQISNSTSGGSSNDNAYFGYSTPWGYFDFNRFHCHFSPRDWQRLINNNWGFRPKRLNFKLFNIQVKEVTDNNGVKTIANNLTSTVQVFTDSDYQLPYVLGSAHEGCLPPFPADVFMIPQYGYLTLNDGSQAVGRSSFYCLEYFPSQMLRTGNNFQFSYEFENVPFHSSYAHSQSLDRLMNPLIDQYLYYLSKTEKMSGSPHSKAQNQQTLKFSVAGPSNMAVQGRNYIPGPSYRQQRVSTTVTQNNNSEFAWPGASSWALNGRNSLMNPGPAMASHKEGEDRFFPLSGSLIFGKQGTGRDNVDADKVMITNEEEIKTTNPVATESYGQVATNHQSAQAQAQTGWVQNQGILPGMVWQDRDVYLQGPIWAKIPHTDGNFHPSPLMGGFGMKHPPPQILIKNTPVPADPPTAFNKDKLNSFITQYSTGQVSVEIEWELQKENSKRWNPEIQYTSNYYKSNNVEFAVNTEGVYSEPRPIGTRYLTRNL
On to B1, for which the “Luciferase Activity (fold change relative to pCMV6 transfected cells)” value in test [1] amounted to 91 fold; in test [2] it was 25 fold; in test [3], 1 fold. In test [1], the “fold increase in transduction by luciferase assay in cells expressing ALPL” value (from here on “fold increase in transduction”) is recorded as “an increase in transduction”.

B2: TTM-019: AAV9 capsid variant, full length capsid sequence of Table 4 (protein)
chain: MAADGYLPDWLEDNLSEGIREWWALKPGAPQPKANQQHQDNARGLVLPGYKYLGPGNGLDKGEPVNAADAAALEHDKAYDQQLKAGDNPYLKYNHADAEFQERLKEDTSFGGNLGRAVFQAKKRLLEPLGLVEEAAKTAPGKKRPVEQSPQEPDSSAGIGKSGAQPAKKRLNFGQTGDTESVPDPQPIGEPPAAPSGVGSLTMASGGGAPVADNNEGADGVGSSSGNWHCDSQWLGDRVITTSTRTWALPTYNNHLYKQISNSTSGGSSNDNAYFGYSTPWGYFDFNRFHCHFSPRDWQRLINNNWGFRPKRLNFKLFNIQVKEVTDNNGVKTIANNLTSTVQVFTDSDYQLPYVLGSAHEGCLPPFPADVFMIPQYGYLTLNDGSQAVGRSSFYCLEYFPSQMLRTGNNFQFSYEFENVPFHSSYAHSQSLDRLMNPLIDQYLYYLSKTVNGHDSPHSKAQNQQTLKFSVAGPSNMAVQGRNYIPGPSYRQQRVSTTVTQNNNSEFAWPGASSWALNGRNSLMNPGPAMASHKEGEDRFFPLSGSLIFGKQGTGRDNVDADKVMITNEEEIKTTNPVATESYGQVATNHQSAQAQAQTGWVQNQGILPGMVWQDRDVYLQGPIWAKIPHTDGNFHPSPLMGGFGMKHPPPQILIKNTPVPADPPTAFNKDKLNSFITQYSTGQVSVEIEWELQKENSKRWNPEIQYTSNYYKSNNVEFAVNTEGVYSEPRPIGTRYLTRNL
With B2, the “Luciferase Activity (fold change relative to pCMV6 transfected cells)” value was 88 fold in test [1], 28 fold in test [2] and 1 fold in test [3]. Also, in test [1], the “fold increase in transduction” value was “an increase in transduction”.

B3: TTM-018: AAV9 capsid variant, full length capsid sequence of Table 4 (protein)
chain: MAADGYLPDWLEDNLSEGIREWWALKPGAPQPKANQQHQDNARGLVLPGYKYLGPGNGLDKGEPVNAADAAALEHDKAYDQQLKAGDNPYLKYNHADAEFQERLKEDTSFGGNLGRAVFQAKKRLLEPLGLVEEAAKTAPGKKRPVEQSPQEPDSSAGIGKSGAQPAKKRLNFGQTGDTESVPDPQPIGEPPAAPSGVGSLTMASGGGAPVADNNEGADGVGSSSGNWHCDSQWLGDRVITTSTRTWALPTYNNHLYKQISNSTSGGSSNDNAYFGYSTPWGYFDFNRFHCHFSPRDWQRLINNNWGFRPKRLNFKLFNIQVKEVTDNNGVKTIANNLTSTVQVFTDSDYQLPYVLGSAHEGCLPPFPADVFMIPQYGYLTLNDGSQAVGRSSFYCLEYFPSQMLRTGNNFQFSYEFENVPFHSSYAHSQSLDRLMNPLIDQYLYYLSKTINGHDSPHSKAQNLQTLKFSVAGPSNMAVQGRNYIPGPSYRQQRVSTTVTQNNNSEFAWPGASSWALNGRNSLMNPGPAMASHKEGEDRFFPLSGSLIFGKQGTGRDNVDADKVMITNEEEIKTTNPVATESYGQVATNHQSAQAQAQTGWVQNQGILPGMVWQDRDVYLQGPIWAKIPHTDGNFHPSPLMGGFGMKHPPPQILIKNTPVPADPPTAFNKDKLNSFITQYSTGQVSVEIEWELQKENSKRWNPEIQYTSNYYKSNNVEFAVNTEGVYSEPRPIGTRYLTRNL
On to B3, for which the “Luciferase Activity (fold change relative to pCMV6 transfected cells)” value in test [1] worked out at 90 fold; in test [2], 25 fold; in test [3] it was 1 fold. Also, the “fold increase in transduction” value in test [1] was “an increase in transduction”.

The values are drawn from patent publication US20260250318A1, “COMPOSITIONS AND METHODS FOR CROSSING THE BLOOD BRAIN BARRIER” (VOYAGER THERAPEUTICS, INC., priority 2022, published 2026).
